Results taken from PMC4475061 (2015).

B1: ULK3 fused to the VP16 activation domain [human] / CHMP1A fused to the Gal4 DNA-binding domain [human] (parent complex)
chain 1: MAGPGWGPPRLDGFILTERLGSGTYATVYKAYAKKDTREVVAIKCVAKKSLNKASVENLLTEIEILKGIRHPHIVQLKDFQWDSDNIYLIMEFCAGGDLSRFIHTRRILPEKVARVFMQQLASALQFLHERNISHLDLKPQNILLSSLEKPHLKLADFGFAQHMSPWDEKHVLRGSPLYMAPEMVCQRQYDARVDLWSMGVILYEALFGQPPFASRSFSELEEKIRSNRVIELPLRPLLSRDCRDLLQRLLERDPSRRISFQDFFAHPWVDLEHMPSGESLGRATALVVQAVKKDQEGDSAAALSLYCKALDFFVPALHYEVDAQRKEAIKAKVGQYVSRAEELKAIVSSSNQALLRQGTSARDLLREMARDKPRLLAALEVASAAMAKEEAAGGEQDALDLYQHSLGELLLLLAAEPPGRRRELLHTEVQNLMARAEYLKEQVKMRESRWEADTLDKEGLSESVRSSCTLQ
chain 2: MDDTLFQLKFTAKQLEKLAKKAEKDSKAEQAKVKKALLQKNVECARVYAENAIRKKNEGVNWLRMASRVDAVASKVQTAVTMKGVTKNMAQVTKALDKALSTMDLQKVSSVMDRFEQQVQNLDVHTSVMEDSMSSATTLTTPQEQVDSLIMQIAEENGLEVLDQLSQLPEGASAVGESSVRSQEDQLSRRLAALRN
B2: ULK3 fused to the VP16 activation domain [human] / CHMP1B WT fused to the Gal4 DNA-binding domain [human] (parent complex)
chain 1: B1 chain 1
chain 2: MEKHLFNLKFAAKELSRSAKKCDKEEKAEKAKIKKAIQKGNMEVARIHAENAIRQKNQAVNFLRMSARVDAVAARVQTAVTMGKVTKSMAGVVKSMDATLKTMNLEKISALMDKFEHQFETLDVQTQQMEDTMSSTTTLTTPQNQVDMLLQEMADEAGLDLNMELPQGQTGSVGTSVASAEQDELSQRLARLRDQV
B3: CHMP1B WT fused to the Gal4 DNA-binding domain [human] / CHMP1A (positive-control partner of the Gal4-CHMP1B constructs in the two-hybrid assay) [human] (parent complex)
chain 1: B2 chain 2
chain 2: B1 chain 2
B4: CHMP1B WT fused to the Gal4 DNA-binding domain [human] / ULK3 fused to the VP16 activation domain [human] (parent complex)
chain 1: B2 chain 2
chain 2: B1 chain 1

Variants of: B1
Experiment: yeast two-hybrid (β-galactosidase activity); read off a plot

Row | response | Variant
1 | ~0.075 | chain 1 V338D

Variants of: B2
Experiment: as above

Row | response | Variant
2 | ~0.061 | chain 1 V338D
3 | ~0.051 | chain 1 M434D

Variants of: B3
Experiment: as above

Row | response | Variant
4 | ~0.77 | chain 1 R188A, chain 1 L189A
5 | ~0.54 | chain 1 R191A, chain 1 L192A, chain 1 R193A
6 | ~0.48 | chain 1 D194A, chain 1 Q195A, chain 1 V196A
7 | ~0.62 | chain 1 L185A, chain 1 S186A, chain 1 Q187A

Variants of: B4
Experiment: as above

Row | response | Variant
8 | ~0.028 | chain 1 R191A, chain 1 L192A, chain 1 R193A
